Data as given in patent publication US20260317446 (published 2026).
One block for each binder: values may come before it.

Experiments:
calmodulin = experiment: other dot blot
YKL-40 A249 = YKL-40 A249 (human); experiment: BLI
YKL-40 A300 = YKL-40 A300 (human); experiment: BLI
YKL-40 A250 = YKL-40 A250 (human); experiment: BLI
YKL-40 A172 = YKL-40 A172 (human); experiment: BLI
YKL-40 A175 = YKL-40 A175 (human); experiment: BLI
YKL-40 A134 = YKL-40 A134 (human); experiment: BLI
YKL-40 A104 = YKL-40 A104 (human); experiment: BLI
YKL-40 A93 = YKL-40 A93 (human); experiment: BLI
YKL-40 A149 = YKL-40 A149 (human); experiment: BLI
YKL-40 R301 = YKL-40 R301 (human); experiment: BLI
YKL-40 A100 = YKL-40 A100 (human); experiment: BLI
YKL-40 A96 = YKL-40 A96 (human); experiment: BLI
YKL-40 A287 = YKL-40 A287 (human); experiment: BLI
YKL-40 A302 = YKL-40 A302 (human); experiment: BLI
YKL-40 A135 = YKL-40 A135 (human); experiment: BLI
YKL-40 A286 = YKL-40 A286 (human); experiment: BLI
YKL-40 A108 = YKL-40 A108 (human); experiment: BLI
YKL-40 R284 = YKL-40 R284 (human); experiment: BLI
YKL-40 A192 = YKL-40 A192 (human); experiment: BLI
YKL-40 A191 = YKL-40 A191 (human); experiment: BLI
YKL-40 A107 = YKL-40 A107 (human); experiment: BLI
YKL-40 A145 = YKL-40 A145 (human); experiment: BLI
YKL-40 A148 = YKL-40 A148 (human); experiment: BLI
YKL-40 A146 = YKL-40 A146 (human); experiment: BLI
YKL-40 A141 = YKL-40 A141 (human); experiment: BLI
YKL-40 A289 = YKL-40 A289 (human); experiment: BLI
YKL-40 A92 = YKL-40 A92 (human); experiment: BLI
human YKL-40 WT = human YKL-40 WT (human); experiment: BLI
YKL-40 A142 = YKL-40 A142 (human); experiment: BLI
YKL-40 A42 = YKL-40 A42 (human); experiment: BLI
YKL-40 A44 = YKL-40 A44 (human); experiment: BLI
YKL-40 A283 = YKL-40 A283 (human); experiment: BLI
YKL-40 A256 = YKL-40 A256 (human); experiment: BLI
YKL-40 A194 = YKL-40 A194 (human); experiment: BLI
YKL-40 A288 = YKL-40 A288 (human); experiment: BLI

YKL-40 A107 (human), sequence (chain, as listed by the source): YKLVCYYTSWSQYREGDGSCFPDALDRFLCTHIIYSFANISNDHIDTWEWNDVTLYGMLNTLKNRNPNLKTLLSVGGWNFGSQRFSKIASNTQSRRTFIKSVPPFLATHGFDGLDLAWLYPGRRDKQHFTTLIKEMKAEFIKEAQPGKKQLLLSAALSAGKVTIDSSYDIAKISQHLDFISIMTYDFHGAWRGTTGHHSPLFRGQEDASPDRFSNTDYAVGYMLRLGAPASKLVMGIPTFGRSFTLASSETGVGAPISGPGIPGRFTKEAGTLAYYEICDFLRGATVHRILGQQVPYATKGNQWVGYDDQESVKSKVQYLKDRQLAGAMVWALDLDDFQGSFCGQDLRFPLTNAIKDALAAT
YKL-40 A286 (human), sequence (chain, as listed by the source): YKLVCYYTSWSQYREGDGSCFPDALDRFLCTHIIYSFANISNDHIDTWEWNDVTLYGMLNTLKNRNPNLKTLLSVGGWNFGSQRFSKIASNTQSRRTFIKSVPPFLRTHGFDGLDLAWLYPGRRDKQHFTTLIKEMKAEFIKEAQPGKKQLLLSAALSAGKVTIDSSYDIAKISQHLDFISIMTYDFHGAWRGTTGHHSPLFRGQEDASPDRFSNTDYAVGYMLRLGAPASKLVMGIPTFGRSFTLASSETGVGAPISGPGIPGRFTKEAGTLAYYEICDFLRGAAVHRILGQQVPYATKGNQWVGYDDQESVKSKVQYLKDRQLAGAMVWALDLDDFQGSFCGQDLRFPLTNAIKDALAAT
YKL-40 A142 (human), sequence (chain, as listed by the source): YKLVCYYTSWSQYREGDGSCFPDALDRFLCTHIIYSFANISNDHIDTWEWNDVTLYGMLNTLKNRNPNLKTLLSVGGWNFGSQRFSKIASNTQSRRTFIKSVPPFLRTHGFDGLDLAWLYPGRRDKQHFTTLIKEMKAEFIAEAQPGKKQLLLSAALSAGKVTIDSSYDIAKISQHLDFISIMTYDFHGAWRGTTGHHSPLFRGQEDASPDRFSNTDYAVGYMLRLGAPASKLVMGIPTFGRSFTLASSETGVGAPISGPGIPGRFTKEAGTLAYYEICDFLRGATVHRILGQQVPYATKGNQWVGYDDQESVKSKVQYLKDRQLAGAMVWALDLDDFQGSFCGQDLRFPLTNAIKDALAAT
YKL-40 A104 (human), sequence (chain, as listed by the source): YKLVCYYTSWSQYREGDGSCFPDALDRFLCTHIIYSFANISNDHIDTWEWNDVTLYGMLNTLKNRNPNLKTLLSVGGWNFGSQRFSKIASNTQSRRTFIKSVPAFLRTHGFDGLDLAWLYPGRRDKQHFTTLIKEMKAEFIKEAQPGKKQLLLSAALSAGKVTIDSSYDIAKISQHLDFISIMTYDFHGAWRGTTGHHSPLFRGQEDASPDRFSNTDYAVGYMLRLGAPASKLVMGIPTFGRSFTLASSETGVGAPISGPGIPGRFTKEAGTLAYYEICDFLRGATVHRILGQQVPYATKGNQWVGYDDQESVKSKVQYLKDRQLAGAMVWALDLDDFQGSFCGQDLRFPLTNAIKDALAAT
YKL-40 A100 (human), sequence (chain, as listed by the source): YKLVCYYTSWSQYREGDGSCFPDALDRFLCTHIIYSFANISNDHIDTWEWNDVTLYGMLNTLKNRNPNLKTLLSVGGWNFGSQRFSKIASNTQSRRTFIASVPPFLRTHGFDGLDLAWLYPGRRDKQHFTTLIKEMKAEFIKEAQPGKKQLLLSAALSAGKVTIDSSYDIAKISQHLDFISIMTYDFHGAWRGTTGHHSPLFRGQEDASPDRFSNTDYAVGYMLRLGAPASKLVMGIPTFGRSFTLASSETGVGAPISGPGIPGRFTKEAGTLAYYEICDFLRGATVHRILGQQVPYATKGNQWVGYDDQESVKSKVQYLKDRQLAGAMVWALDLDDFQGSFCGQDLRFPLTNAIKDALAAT
YKL-40 A250 (human), sequence (chain, as listed by the source): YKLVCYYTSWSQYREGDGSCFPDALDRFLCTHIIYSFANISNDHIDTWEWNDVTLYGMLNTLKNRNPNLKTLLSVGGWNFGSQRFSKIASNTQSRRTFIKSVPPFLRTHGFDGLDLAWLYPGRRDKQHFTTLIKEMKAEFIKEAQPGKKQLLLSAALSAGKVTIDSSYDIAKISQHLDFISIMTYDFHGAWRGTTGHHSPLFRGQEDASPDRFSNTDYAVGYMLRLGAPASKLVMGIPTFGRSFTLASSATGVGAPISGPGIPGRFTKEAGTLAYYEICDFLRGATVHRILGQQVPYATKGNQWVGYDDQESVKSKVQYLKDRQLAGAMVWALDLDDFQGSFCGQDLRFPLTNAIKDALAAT
human YKL-40 WT (human), sequence (chain, as listed by the source): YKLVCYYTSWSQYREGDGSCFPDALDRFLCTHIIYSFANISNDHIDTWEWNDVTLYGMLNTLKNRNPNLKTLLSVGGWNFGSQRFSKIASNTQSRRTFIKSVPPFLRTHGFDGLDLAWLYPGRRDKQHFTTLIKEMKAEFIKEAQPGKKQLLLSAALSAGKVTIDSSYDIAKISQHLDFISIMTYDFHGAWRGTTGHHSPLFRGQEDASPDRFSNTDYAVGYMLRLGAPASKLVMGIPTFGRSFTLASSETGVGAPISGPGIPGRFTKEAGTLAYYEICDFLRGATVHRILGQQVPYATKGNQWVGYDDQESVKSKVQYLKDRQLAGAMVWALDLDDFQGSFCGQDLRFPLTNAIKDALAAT
YKL-40 A192 (human), sequence (chain, as listed by the source): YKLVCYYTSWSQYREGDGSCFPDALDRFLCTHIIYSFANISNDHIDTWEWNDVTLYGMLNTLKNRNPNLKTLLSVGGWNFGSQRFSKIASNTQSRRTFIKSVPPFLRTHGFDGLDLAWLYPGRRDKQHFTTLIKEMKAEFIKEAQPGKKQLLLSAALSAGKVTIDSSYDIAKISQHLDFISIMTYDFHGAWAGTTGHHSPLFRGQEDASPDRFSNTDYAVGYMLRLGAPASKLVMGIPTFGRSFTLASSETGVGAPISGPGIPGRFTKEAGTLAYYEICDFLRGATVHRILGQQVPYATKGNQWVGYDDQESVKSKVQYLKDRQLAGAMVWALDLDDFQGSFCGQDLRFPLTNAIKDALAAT
YKL-40 R301 (human), sequence (chain, as listed by the source): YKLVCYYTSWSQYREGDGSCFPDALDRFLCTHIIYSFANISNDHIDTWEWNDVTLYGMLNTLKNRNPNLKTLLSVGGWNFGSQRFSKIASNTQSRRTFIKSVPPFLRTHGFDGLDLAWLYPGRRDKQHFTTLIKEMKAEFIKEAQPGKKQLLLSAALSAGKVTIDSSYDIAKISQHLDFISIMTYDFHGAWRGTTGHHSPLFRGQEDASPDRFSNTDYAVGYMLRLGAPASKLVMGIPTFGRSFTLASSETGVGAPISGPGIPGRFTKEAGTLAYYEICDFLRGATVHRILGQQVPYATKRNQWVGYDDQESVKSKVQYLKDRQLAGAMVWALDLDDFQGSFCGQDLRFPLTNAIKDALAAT
YKL-40 A92 (human), sequence (chain, as listed by the source): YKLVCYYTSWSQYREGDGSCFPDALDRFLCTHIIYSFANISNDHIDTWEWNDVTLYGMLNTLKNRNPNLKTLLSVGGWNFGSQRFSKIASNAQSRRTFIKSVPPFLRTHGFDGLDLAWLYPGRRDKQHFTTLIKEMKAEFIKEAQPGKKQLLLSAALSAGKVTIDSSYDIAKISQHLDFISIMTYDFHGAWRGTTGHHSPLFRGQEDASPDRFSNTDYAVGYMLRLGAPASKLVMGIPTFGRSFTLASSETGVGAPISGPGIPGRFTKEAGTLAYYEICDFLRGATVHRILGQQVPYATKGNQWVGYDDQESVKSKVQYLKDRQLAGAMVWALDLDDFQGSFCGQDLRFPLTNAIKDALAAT
YKL-40 A148 (human), sequence (chain, as listed by the source): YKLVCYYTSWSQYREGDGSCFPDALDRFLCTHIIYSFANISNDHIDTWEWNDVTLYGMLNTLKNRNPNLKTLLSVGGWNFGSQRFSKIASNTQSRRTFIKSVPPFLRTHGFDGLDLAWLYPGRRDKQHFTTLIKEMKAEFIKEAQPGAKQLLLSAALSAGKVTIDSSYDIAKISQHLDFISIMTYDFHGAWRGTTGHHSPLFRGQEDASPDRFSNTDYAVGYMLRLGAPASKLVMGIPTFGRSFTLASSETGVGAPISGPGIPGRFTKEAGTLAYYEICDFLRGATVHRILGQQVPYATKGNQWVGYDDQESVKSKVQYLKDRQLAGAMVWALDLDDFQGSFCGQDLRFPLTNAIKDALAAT
YKL-40 A134 (human), sequence (chain, as listed by the source): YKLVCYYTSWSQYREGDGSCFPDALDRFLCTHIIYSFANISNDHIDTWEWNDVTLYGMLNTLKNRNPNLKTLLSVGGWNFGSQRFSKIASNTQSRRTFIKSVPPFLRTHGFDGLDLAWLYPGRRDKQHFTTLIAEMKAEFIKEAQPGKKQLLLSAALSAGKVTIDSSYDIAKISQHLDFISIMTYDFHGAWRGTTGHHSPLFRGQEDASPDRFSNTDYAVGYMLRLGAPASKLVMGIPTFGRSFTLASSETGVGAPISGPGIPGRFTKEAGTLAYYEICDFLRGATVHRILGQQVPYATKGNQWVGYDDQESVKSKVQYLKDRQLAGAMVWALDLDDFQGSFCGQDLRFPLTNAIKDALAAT
YKL-40 A96 (human), sequence (chain, as listed by the source): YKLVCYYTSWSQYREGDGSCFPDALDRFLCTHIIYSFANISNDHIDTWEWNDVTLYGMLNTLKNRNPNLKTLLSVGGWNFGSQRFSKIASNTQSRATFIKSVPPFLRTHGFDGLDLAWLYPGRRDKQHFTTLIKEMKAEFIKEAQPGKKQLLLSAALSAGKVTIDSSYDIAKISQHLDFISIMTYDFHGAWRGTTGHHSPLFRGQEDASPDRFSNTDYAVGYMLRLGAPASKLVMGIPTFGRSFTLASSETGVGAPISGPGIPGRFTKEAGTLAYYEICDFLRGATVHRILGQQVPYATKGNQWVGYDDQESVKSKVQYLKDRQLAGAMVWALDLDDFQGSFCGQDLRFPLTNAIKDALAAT

binding result (calmodulin): no binding
B1: B3-hFc (antibody)
chain 1: MAEVQLLESGGGLVQPGGSLRLSCAASGFRDSDEDMGWVRQAPGKGLEWVSSISAPGGSTYYADSVKGRFTISRDNSKNTLYLQMNSLRAEDTAVYYCASHYNYGHWFDYWGQGTLVTVSSAA
chain 2: VECPPCPAPPVAGPSVFLFPPKPKDTLMISRTPEVTCVVVDVSHEDPEVQFNWYVDGMEVHNAKTKPREEQFNSTFRVVSVLTVVHQDWLNGKEYKCKVSNKGLPAPIEKTISKTKGQPREPQVYTLPPSREEMTKNQVSLTCLVKGFYPSDIAVEWESNGQPENNYKTTPPMLDSDGSFFLYSKLTVDKSRWQQGNVFSCSVMHEALHNHYTQKSLSLSPGK

Kd (YKL-40 A249): 2480 nM
Kd (YKL-40 A300): 7260 nM
Kd (YKL-40 A250): 120 nM
Kd (YKL-40 A172): 0.655 nM
Kd (YKL-40 A175): 0.684 nM
Kd (YKL-40 A134): 0.516 nM
Kd (YKL-40 A104): 0.423 nM
Kd (YKL-40 A93): 0.777 nM
Kd (YKL-40 A149): 0.84 nM
Kd (YKL-40 R301): 0.753 nM
Kd (YKL-40 A100): 0.906 nM
Kd (YKL-40 A96): 0.558 nM
Kd (YKL-40 A287): 164 nM
Kd (YKL-40 A302): 0.673 nM
Kd (YKL-40 A135): 0.755 nM
Kd (YKL-40 A286): 0.472 nM
Kd (YKL-40 A108): 0.529 nM
Kd (YKL-40 R284): 52000 nM
Kd (YKL-40 A192): 0.699 nM
Kd (YKL-40 A191): 4800 nM
Kd (YKL-40 A107): 0.611 nM
Kd (YKL-40 A145): 0.465 nM
Kd (YKL-40 A148): 0.817 nM
Kd (YKL-40 A146): 0.773 nM
Kd (YKL-40 A141): 0.638 nM
Kd (YKL-40 A289): 0.693 nM
Kd (YKL-40 A92): 33.9 nM
Kd (human YKL-40 WT): 1180 nM
Kd (YKL-40 A142): 0.79 nM
Kd (YKL-40 A42): 2540 nM
Kd (YKL-40 A44): 0.439 nM
Kd (YKL-40 A283): 1.07 nM
Kd (YKL-40 A256): 104 nM
Kd (YKL-40 A194): 20600 nM
Kd (YKL-40 A288): 0.649 nM
B2: H7 (antibody, V domains shown)
VH: EVQLQQSGAELVKPGASVKLSCTASGFNIKDTYMHWVKQRPEQGLEWIGRIDPANGNTIYASKFQGKATITRDTSSNTAYMQLSSLTSGDTAVYYCTRGVYYYGGSFYAMDYWGQGTSVTVSS
VL: DIQMTQSPASLSASVGETVTITCGASENIYGALNWYQRKQGKSPQLLIYGATTLADGMSSRFSGSGSGRQYSLKISSLHPDDVATYYCQNVLTTPWTFGGGTKLEIKT
